Results on eight molecules are retold here after patent US20220233706A1 (ANTIKOR BIOPHARMA, published 2022).

Assay [1] deals with T1, HER2 immobilised on a Biacore chip (UniProt P04626 23-652, limits assumed).
T1 construct: also called immobilised HER2 target antigen (Biacore SPR); HER2 chip
The assay is described as follows: Biacore SPR, HER2 amine-coupled to the chip.

Assay [2] addresses T1, HER2 immobilised on a Biacore chip. The assay is described as follows: Biacore SPR, HER2 amine-coupled to the chip; Auristatin-F-C5 conjugate, DAR 3.3. As for the experimental part:
(§1) A standard amine-coupling method was used to prepare all Biacore surfaces (CM5 or CM3), as follows. Flow cells were activated individually by injecting a freshly mixed solution of 0.2M EDC in 0.05 M NHS at 30 μl/min. […] Excess NHS ester was deactivated using a 1 M ethanolamine solution. […] The dissociation time was extended to 3600 s for the highest concentration. Surfaces were regenerated with 45 s injection of MgCl₂ […].

The target is the same in assay [3]. The assay is described as follows: Biacore SPR, HER2 amine-coupled to the chip; Auristatin-F-C5 conjugate, DAR 11.9. The protocol: as §1
For assay [4] the target is unchanged. The assay is described as follows: Biacore SPR, HER2 amine-coupled to the chip; DM1-dPEG12 conjugate, DAR 8. As for the experimental part:
as §1

For assay [5] the target is unchanged. Nature of the assay: Biacore SPR, HER2 amine-coupled to the chip; Auristatin-F-C5 conjugate, DAR 5.65. As for the experimental part: as §1
The target is the same in assay [6]. Nature of the assay: Biacore SPR, HER2 amine-coupled to the chip; MMAE-PAB-Cit-Val-dPEG9 conjugate, DAR 8.6. The protocol:
as §1

The target is the same in assay [7]. Nature of the assay: Biacore SPR, HER2 amine-coupled to the chip; DM1-dPEG12 conjugate, DAR 7. The protocol: as §1
The target of assay [8] is T2, HER2-Fc (UniProt P04626 23-652).
T2 construct: Coated at 10 µg/ml on ELISA plates; also called HER2 antigen; immobilised HER2 target antigen (ELISA); not shown: Fc part
Nature of the assay: ELISA, plates coated with 10 µg/ml HER2-Fc, anti-T7 peroxidase detection. As for the experimental part: (§2) All proteins were detected using the C-terminal T7 Tag which was not expected to be chemically modified (no lysines present). 96-well Immunosorb ELISA plates were coated with 10 μg/ml HER2-Fc in PBS, followed by the test samples, anti-T7 peroxidase conjugate. Extensive PBS washes were in between each layer and detection was with BM-Blue substrate.

Assay [9] deals with T2, HER2-Fc. The assay is described as follows: ELISA, plates coated with 10 µg/ml HER2-Fc, anti-T7 peroxidase detection; unmodified scFv (TCT), ELISA. As for the experimental part: (§3) The DAR was determined by AAA as before (Table 11A & B), this time following the release of the di-proline fragment to identify and quantify the P5-based drug. […] All proteins were detected using the C-terminal T7 Tag which was not expected to be chemically modified (no lysines present). 96-well Immunosorb ELISA plates were coated with 10 μg/ml HER2-Fc in PBS, followed by the test samples, anti-T7-peroxidase conjugate. Extensive PBS/tween-20 and PBS washes were in between each layer and detection was with BM-Blue substrate. […] The DARs were verified by AAA (Tables 11A and 11B).

Assay [10] deals with T2, HER2-Fc. The assay is described as follows: ELISA on plates coated with 10 µg/ml HER2-Fc, detection anti-T7 peroxidase conjugate, absorption at 450 nm. As for the experimental part:
as §2

The target of assay [11] is T2, HER2-Fc. Described as above. As for the experimental part:
as §3
This is another data set of the same source.

Assay [12] deals with T2, HER2-Fc. Nature of the assay: ELISA, plates coated with 10 µg/ml HER2-Fc, anti-T7 peroxidase detection; scFv TCT-P5C5(1), 8 drugs loaded, ELISA. The protocol:
as §3

Where two headings read alike, the source gives them in different places.

B1: scFv (TCT1067)-Auristatin-F-C5 DAR 3.3 (scFv)
scFv: SGSGGSGQVQLVQSGAEVKKPGESLKISCKGSGYSFTSYWIAWVRQMPGKGLEYMGLIYPGDSDTKYSPSFQGQVTISVDKSVSTAYLQWSSLKPSDSAVYFCARHDVGYCTDRTCAAWPEWLGVWGQGTLVTVSSGGGGSGGGGSGGGGSQSVLTQPPSVSAAPGQKVTISCSGSSSNIGNNYVSWYQQLPGTAPKLLIYGHTNRPAGVPDRFSGSKSGTSASLAISGFRSEDEADYYCASWDYTLSGWVFGGGTKLTVLMASMTGGQQMG
modifications: Auristatin F-C5 on lysine residues; DAR 3.64 by AAA, 2.9 by MS, average 3.3
notes: also called TCT1067-AF-C5 ADC 1
With B1, in assay [1], the koff is 1.82e-05 s⁻¹ and the kon worked out at 556000 M⁻¹ s⁻¹. The Kd in assay [2] stood at 0.0328 nM.

B2: scFv (TCT1067)-Auristatin-F-C5 DAR 11.9 (scFv)
scFv: SGSGGSGQVQLVQSGAEVKKPGESLKISCKGSGYSFTSYWIAWVRQMPGKGLEYMGLIYPGDSDTKYSPSFQGQVTISVDKSVSTAYLQWSSLKPSDSAVYFCARHDVGYCTDRTCAAWPEWLGVWGQGTLVTVSSGGGGSGGGGSGGGGSQSVLTQPPSVSAAPGQKVTISCSGSSSNIGNNYVSWYQQLPGTAPKLLIYGHTNRPAGVPDRFSGSKSGTSASLAISGFRSEDEADYYCASWDYTLSGWVFGGGTKLTVLMASMTGGQQMG
modifications: Auristatin F-C5 on lysine residues; DAR 13.4 by AAA, 10.4 by MS, average 11.9
notes: also called TCT1067-AF-C5 ADC 3
As to B2, in assay [1], the koff worked out at 1.76e-05 s⁻¹ and the kon is 21700 M⁻¹ s⁻¹. Moreover, in [3], the Kd came out at 0.81 nM.

B3: scFv (TCT1067)-DM1-dPEG12 DAR 8 (scFv)
scFv: SGSGGSGQVQLVQSGAEVKKPGESLKISCKGSGYSFTSYWIAWVRQMPGKGLEYMGLIYPGDSDTKYSPSFQGQVTISVDKSVSTAYLQWSSLKPSDSAVYFCARHDVGYCTDRTCAAWPEWLGVWGQGTLVTVSSGGGGSGGGGSGGGGSQSVLTQPPSVSAAPGQKVTISCSGSSSNIGNNYVSWYQQLPGTAPKLLIYGHTNRPAGVPDRFSGSKSGTSASLAISGFRSEDEADYYCASWDYTLSGWVFGGGTKLTVLMASMTGGQQMG
modifications: Maytansine DM1-dPEG12 (from compound 90) on lysine residues, DAR 8 by LC-MS
notes: also called TCT1067-Maytansine-PEG(12) DM1 ADC 2; scFv (TCT1067)-DM1 DAR 8
In assay [1], B3 showed a koff of 3.28e-05 s⁻¹ and a kon of 13200 M⁻¹ s⁻¹. Moreover, in assay [4], the Kd was determined as 2.48 nM.

B4: scFv (TCT1067)-Auristatin-F-C5 DAR 5.65 (scFv)
scFv: SGSGGSGQVQLVQSGAEVKKPGESLKISCKGSGYSFTSYWIAWVRQMPGKGLEYMGLIYPGDSDTKYSPSFQGQVTISVDKSVSTAYLQWSSLKPSDSAVYFCARHDVGYCTDRTCAAWPEWLGVWGQGTLVTVSSGGGGSGGGGSGGGGSQSVLTQPPSVSAAPGQKVTISCSGSSSNIGNNYVSWYQQLPGTAPKLLIYGHTNRPAGVPDRFSGSKSGTSASLAISGFRSEDEADYYCASWDYTLSGWVFGGGTKLTVLMASMTGGQQMG
modifications: Auristatin F-C5 on lysine residues; DAR 6.31 by AAA, 4.98 by MS, average 5.65
notes: also called TCT1067-AF-C5 ADC2
In assay [1], B4 yielded a koff of 1.35e-05 s⁻¹ and a kon of 336000 M⁻¹ s⁻¹. The same molecule gave a Kd in assay [5] of 0.0403 nM.

B5: scFv (TCT1067)-MMAE-PAB-Cit-Val-dPEG9 conjugate, DAR 8.6 (scFv)
scFv: SGSGGSGQVQLVQSGAEVKKPGESLKISCKGSGYSFTSYWIAWVRQMPGKGLEYMGLIYPGDSDTKYSPSFQGQVTISVDKSVSTAYLQWSSLKPSDSAVYFCARHDVGYCTDRTCAAWPEWLGVWGQGTLVTVSSGGGGSGGGGSGGGGSQSVLTQPPSVSAAPGQKVTISCSGSSSNIGNNYVSWYQQLPGTAPKLLIYGHTNRPAGVPDRFSGSKSGTSASLAISGFRSEDEADYYCASWDYTLSGWVFGGGTKLTVLMASMTGGQQMG
modifications: MMAE-PAB-Cit-Val-dPEG9 (from compound 86) on lysine residues; DAR 9.6 by AAA, 7.5 by LC-MS, average 8.6
notes: also called TCT1067-MMAE ADC1
Regarding B5, in assay [1], the koff is 2.23e-05 s⁻¹ and the kon was 22100 M⁻¹ s⁻¹. Binding in [6] was characterised by a dissociation constant (Kd) of 1 nM.

B6: scFv (TCT1067)-DM1-dPEG12 DAR 7 (scFv)
scFv: SGSGGSGQVQLVQSGAEVKKPGESLKISCKGSGYSFTSYWIAWVRQMPGKGLEYMGLIYPGDSDTKYSPSFQGQVTISVDKSVSTAYLQWSSLKPSDSAVYFCARHDVGYCTDRTCAAWPEWLGVWGQGTLVTVSSGGGGSGGGGSGGGGSQSVLTQPPSVSAAPGQKVTISCSGSSSNIGNNYVSWYQQLPGTAPKLLIYGHTNRPAGVPDRFSGSKSGTSASLAISGFRSEDEADYYCASWDYTLSGWVFGGGTKLTVLMASMTGGQQMG
modifications: Maytansine DM1-dPEG12 on lysine residues, 6-8 additions, average DAR 7 by LC-MS
notes: also called TCT1067-Maytansine-PEG(12) DM1 ADC 1; compound 124
In assay [1], B6 gave a koff of 2.7e-05 s⁻¹ and a kon of 19500 M⁻¹ s⁻¹. In assay [7], this molecule returned a Kd of 1.39 nM.

B7: scFv (TCT) (scFv)
scFv: SGSGGSGQVQLVQSGAEVKKPGESLKISCKGSGYSFTSYWIAWVRQMPGKGLEYMGLIYPGDSDTKYSPSFQGQVTISVDKSVSTAYLQWSSLKPSDSAVYFCARHDVGYCSSSNCAAWPEYFQHWGQGTLVTVSSGGGGSGGGGSGGGGSQSVLTQPPSVSAAPGQKVTISCSGSSSNIGNNYVSWYQQLPGTAPKLLIYGHTNRPAGVPDRFSGSKSGTSASLAISGFRSEDEADYYCAAWDDSLSGWVFGGGTKLTVLMASMTGGQQMG
notes: Anti-HER2 C6.5 scFv with residual Ser, GSGGSG linker and C-terminal T7 tag; also called cleaved TCT; unmodified scFv (TCT)
B7: the Kd in [1] turned out to be 1.49 nM; with HER2-Fc [8], 2.5 nM; with HER2-Fc [9] it was 7 nM; with HER2-Fc [11] it was 6.97 nM. Also, the koff in assay [1] came to 0.00417 s⁻¹. This molecule also registered a kon in [1] of 2.8e+06 M⁻¹ s⁻¹. Moreover, the “EC50 (read off the curve)” value with HER2-Fc [10] is 2 to 3 nM; with HER2-Fc [11], approximately 7 nM.

B8: scFv TCT-P5C5(1) (DAR 8) (scFv)
scFv: SGSGGSGQVQLVQSGAEVKKPGESLKISCKGSGYSFTSYWIAWVRQMPGKGLEYMGLIYPGDSDTKYSPSFQGQVTISVDKSVSTAYLQWSSLKPSDSAVYFCARHDVGYCSSSNCAAWPEYFQHWGQGTLVTVSSGGGGSGGGGSGGGGSQSVLTQPPSVSAAPGQKVTISCSGSSSNIGNNYVSWYQQLPGTAPKLLIYGHTNRPAGVPDRFSGSKSGTSASLAISGFRSEDEADYYCAAWDDSLSGWVFGGGTKLTVLMASMTGGQQMG
modifications: P5C5 (from P5C5-NHS, compound 6) on lysine residues, DAR 8.17 by AAA
notes: also called scFv (TCT)-P5C5, DAR = 8; compound 71
With B8, in the assay with HER2-Fc [12], the Kd stood at 13 nM. Besides, in the assay with HER2-Fc [11], the “EC50 (read off the curve)” value fell in the range of 10 to 20 nM and the Kd was 13 nM.
